Source: paper PMC7859441
Starred links: 1 amine or outer side, 2 acyl side, 3 side chain; linkers in the order of their positions; H or OH if unused. Non-standard residues stand in square brackets, D forms with d. No end group written: not given here. βAsp = O=C(O)[C@H](CC(=O)[*:2])N[*:1]

What was measured:
[1] = molecular target: zebrafish Pcmt (protein L-isoaspartyl methyltransferase) (zebrafish) (UniProt Q92047)
[2] = molecular target: zebrafish Pcmtl (protein L-isoaspartyl methyltransferase paralog) (zebrafish)

Sequence of UniProt Q92047 (Q92047 whole entry): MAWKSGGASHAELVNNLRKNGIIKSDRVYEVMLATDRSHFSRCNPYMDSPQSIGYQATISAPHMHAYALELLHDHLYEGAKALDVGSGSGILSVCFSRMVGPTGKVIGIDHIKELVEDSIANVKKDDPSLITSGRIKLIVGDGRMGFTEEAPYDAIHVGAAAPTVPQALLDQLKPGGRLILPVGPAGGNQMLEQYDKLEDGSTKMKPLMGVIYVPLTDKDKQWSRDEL

B1: isoaspartyl substrate peptide KASAisoDLAKY (peptide)
peptide: KASA[βAsp]LAKY
- KM for the methyl acceptor peptide substrate, isoaspartyl methyltransferase activity (methanol vapor diffusion assay, 30°C, 0.2 M Bis-Tris pH 6.0, 14.5 μM SAM, 0.2–60 μM peptide) [1]: 4.2 μM
- KM for the methyl acceptor peptide substrate, isoaspartyl methyltransferase activity (methanol vapor diffusion assay, 30°C, 0.2 M Bis-Tris pH 6.0, 14.5 μM SAM, 0.2–60 μM peptide) [2]: 3.6 μM
